This is an account of results in patent EP1161262B1 (University of Maryland, Baltimore, dated 2008).

Experiment [1] deals with T1, colligin/Hsp47 on the surface of human carcinoma cells (human, UniProt P50454 19-418).
T1 construct: whole, on cells; Endogenous protein on cells or in plasma membrane preparations and lysates of surface-biotinylated human SCC cells; also called CBP2; colligin/CBP2/Hsp47
T1 sequence (looked up): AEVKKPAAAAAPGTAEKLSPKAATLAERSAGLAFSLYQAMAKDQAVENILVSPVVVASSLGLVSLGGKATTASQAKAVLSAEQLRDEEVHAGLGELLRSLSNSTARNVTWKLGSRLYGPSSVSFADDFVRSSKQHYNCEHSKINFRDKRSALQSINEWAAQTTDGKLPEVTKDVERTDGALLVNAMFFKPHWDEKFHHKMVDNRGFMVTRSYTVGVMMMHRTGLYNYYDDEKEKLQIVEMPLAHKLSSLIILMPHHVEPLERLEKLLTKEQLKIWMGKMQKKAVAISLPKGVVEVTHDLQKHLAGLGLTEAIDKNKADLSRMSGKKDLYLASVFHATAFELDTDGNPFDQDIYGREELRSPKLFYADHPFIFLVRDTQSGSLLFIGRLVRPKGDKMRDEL
Nature of the experiment: DSP cross-linking of surface-labelled cells, immunoprecipitation with anti-CD81 mAbs.

Experiment [2] deals with T2, colligin/Hsp47 of the murine Lewis Lung Carcinoma (LL/2) cell line (murine, UniProt P19324 18-417).
T2 construct: whole, on cells; Endogenous protein of LL/2 cells
T2 sequence (looked up): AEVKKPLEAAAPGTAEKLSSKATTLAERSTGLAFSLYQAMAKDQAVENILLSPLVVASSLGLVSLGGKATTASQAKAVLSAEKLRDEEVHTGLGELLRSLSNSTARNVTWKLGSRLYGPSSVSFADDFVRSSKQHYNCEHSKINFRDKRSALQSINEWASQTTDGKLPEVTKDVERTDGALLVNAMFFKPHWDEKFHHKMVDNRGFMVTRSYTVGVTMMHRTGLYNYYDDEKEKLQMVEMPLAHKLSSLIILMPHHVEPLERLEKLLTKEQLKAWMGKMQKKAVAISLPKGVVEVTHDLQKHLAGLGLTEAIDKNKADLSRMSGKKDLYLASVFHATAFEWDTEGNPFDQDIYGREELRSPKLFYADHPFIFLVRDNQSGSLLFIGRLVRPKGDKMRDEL
Described as above.

B1: CD81 of human SCC cells (other, UniProt P60033 1-236, looked up)
chain: MGVEGCTKCIKYLLFVFNFVFWLAGGVILGVALWLRHDPQTTNLLYLELGDKPAPNTFYVGIYILIAVGAVMMFVGFLGCYGAIQESQCLLGTFFTCLVILFACEVAAGIWGFVNKDQIAKDVKQFYDQALQQAVVDDDANNAKAVVKTFHETLDCCGSSTLTALTTSVLKNNLCPSGSNIISNLFKEDCHQKIDDLFSGKLYLIGIAAIVVAVIMIFEMILSMVLCCGIRNSSVY
notes: whole, on cells
B1: the binding result in experiment [1] is “no binding”.

B2: CD81 of murine LL/2 cells (other, UniProt P35762 1-236, looked up)
chain: MGVEGCTKCIKYLLFVFNFVFWLAGGVILGVALWLRHDPQTTSLLYLELGNKPAPNTFYVGIYILIAVGAVMMFVGFLGCYGAIQESQCLLGTFFTCLVILFACEVAAGIWGFVNKDQIAKDVKQFYDQALQQAVMDDDANNAKAVVKTFHETLNCCGSNALTTLTTTILRNSLCPSGGNILTPLLQQDCHQKIDELFSGKLYLIGIAAIVVAVIMIFEMILSMVLCCGIRNSSVY
notes: whole, on cells
On to B2, for which, in experiment [2], the binding result is “no binding”.
